Reference: patent US10646622B2, “Biologically active implants” (priority 1998, dated 2020)

Test system: fracture of the right tibia
Format: in vivo, Sprague Dawley rats
Experimental: In an experiment with animals, tests were conducted on 60 such animals (5-months-old female Sprague Dawley rats). All test animals were subjected to a standardized fracture of the right tibia. Differently coated titanium wires (1.0 mm in diameter) were then implanted in the repositioned tibiae as intramedullary supports.
Depending on the group assignments as specified below 2 mg/kg of a rat-specific recombinant growth hormone (r-rGH) or a placebo was subcutaneously injected daily for a period of time up to 42 days. At various time points (0 d, 4 d, 7 d, 14 d, 21 d, 28 d, 35 d, and 42 d) and after administration of an anaesthetic inhalant, x-rays were taken in two planes, 1.25 ml of blood was taken from each by the retrobulbar method (deep-frozen at −80° C. (−112° F.)), and their weight and body temperature were measured. On day 42, the fractured and the unfractured tibiae, along with the periosteum, were separately prepared and subjected to biomechanical tests (torsional load-torsional stiffness).
Group Assignments • Group I: Fracture of the right tibia—uncoated implant— • Systemic application of a placebo (control group) • Group II: Fracture of the right tibia—implant coated with poly-D,L-lactide 203— • Systemic application of a placebo • Group III: Fracture of the right tibia—implant coated with poly-D,L-lactide— • Systemic application of (r-rGH) • Group IV: Fracture of the right tibia—implant coated with poly-D,L-lactide and growth factors IGF-I (5%) and TGF-β (1%)— • Systemic application of a placebo • Group V: Fracture of the right tibia—implant coated with poly-D,L-lactide and growth factors IGF-I (5%) and TGF-β (1%)— • Systemic application of (r-rGH)
The coated implants were produced as indicated in Example 1.

Row | Molecule | differences in weight and temperature among placebo groups I, II and IV (rat, in vivo) | body weight increase (2 mg/kg s.c. daily, compared to placebo, p<0.05) [%] | maximum torsional load (day 42, systemic 2 mg/kg s.c. daily with implant coated with poly-D,L-lactide (Group III), p<0.05)
1 | poly(D,L) lactide [PDLLA] | No major differences | – | –
2 | r-rGH: rat-specific recombinant growth hormone, subcutaneously injected (protein, UniProt P01244 27-216, looked up) Somatotropin: FPAMPLSSLFANAVLRAQHLHQLAADTYKEFERAYIPEGQRYSIQNAQAAFCFSETIPAPTGKEEAQQRTDMELLRFSLLLIQSWLGPVQFLSRIFTNSLMFGTSDRVYEKLKDLEEGIQALMQELEDGSPRIGQILKQTYDKFDANMRSDDALLKNYGLLSCFKKDLHKAETYLRVMKCRRFAESSCAF | – | 13 | significant increase
